Earlier results on 1 substance are cited in US20100143424A1, “CASEIN NANOPARTICLE” (FUJIFILM CORPORATION, priority 2008, published 2010).

For this data set the following is noted: casein derived from milk, Wako Pure Chemical Industries.

For casein, the isoelectric point is 4.3.
